Data reported in the supplement of paper PMC9112550, “Optimization of the antimicrobial peptide Bac7 by deep mutational scanning” (BMC Biology, 2022).

Test system: Escherichia coli TOP10
Test: shrunken log2 fold change of peptide-encoding DNA abundance (4.5 h post-induction vs induction); higher = less antimicrobial activity (less host growth inhibition)
Conditions: time post-induction: 4.5 h; library: site-saturation at positions 5, 18, 19, 20
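Note: peptides expressed intracellularly from a pBAD plasmid library in pooled LB shake-flask culture, induced with 0.3% L-arabinose, DNA abundance read by NGS, three biological replicates, DESeq2 with apeglm shrinkage.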

Sequence	shrunken log2 fold change
RRIRKRPPRLPRPRPRPMGWPRP	0.31
RRIRNRPPRLPRPRPRPIEMPRP	-0.141
RRIRLRPPRLPRPRPRPKNWPRP	-0.0113
RRIRARPPRLPRPRPRPKKMPRP	-0.0239
RRIRERPPRLPRPRPRPTFFPRP	0.321
RRIRVRPPRLPRPRPRPQHRPRP	0.0105
RRIRVRPPRLPRPRPRPFIPPRP	-0.535
RRIRNRPPRLPRPRPRPTYFPRP	-0.147
RRIRSRPPRLPRPRPRPEFRPRP	0.15
RRIRFRPPRLPRPRPRPSYSPRP	-0.903
RRIRSRPPRLPRPRPRPYATPRP	-0.192
RRIRYRPPRLPRPRPRPDVVPRP	0.0135
RRIRIRPPRLPRPRPRPMMRPRP	0.116
RRIRLRPPRLPRPRPRPGYIPRP	-0.41
RRIRNRPPRLPRPRPRPVAMPRP	-0.198
RRIRPRPPRLPRPRPRPFRFPRP	0.0991
RRIRARPPRLPRPRPRPAMGPRP	0.505
RRIRMRPPRLPRPRPRPFLCPRP	-0.0722
RRIRFRPPRLPRPRPRPQWMPRP	-0.414
RRIRSRPPRLPRPRPRPNTPPRP	-0.616
RRIRTRPPRLPRPRPRPSQQPRP	0.117
RRIRARPPRLPRPRPRPNHCPRP	0.956
RRIRARPPRLPRPRPRPMGHPRP	0.062
RRIRLRPPRLPRPRPRPKKKPRP	0.141
RRIRQRPPRLPRPRPRPVSMPRP	-0.181

Sequence	shrunken log2 fold change
RRIRWRPPRLPRPRPRPDVGPRP	0.181
RRIRRRPPRLPRPRPRPAYVPRP	0.0253
RRIRDRPPRLPRPRPRPMSHPRP	-0.046
RRIRFRPPRLPRPRPRPYQTPRP	-0.0618
RRIRDRPPRLPRPRPRPGQCPRP	0.131
RRIRSRPPRLPRPRPRPNPMPRP	-0.111
RRIRCRPPRLPRPRPRPQQRPRP	0.0521
RRIRHRPPRLPRPRPRPYFRPRP	-0.296
RRIRARPPRLPRPRPRPTYWPRP	0.144
RRIRFRPPRLPRPRPRPLILPRP	-0.739
RRIRARPPRLPRPRPRPRCRPRP	0.427
RRIRCRPPRLPRPRPRPVISPRP	-0.154
RRIRIRPPRLPRPRPRPKIAPRP	0.00729
RRIRGRPPRLPRPRPRPVNTPRP	0.0713
RRIRDRPPRLPRPRPRPKQFPRP	-0.00831
RRIRQRPPRLPRPRPRPHGSPRP	-0.00277
RRIRNRPPRLPRPRPRPEWYPRP	-0.451
RRIRTRPPRLPRPRPRPMEQPRP	-0.189
RRIRMRPPRLPRPRPRPRCEPRP	0.704
RRIRYRPPRLPRPRPRPNLKPRP	-0.732
RRIRVRPPRLPRPRPRPKHRPRP	0.356
RRIRIRPPRLPRPRPRPNSMPRP	-1.23
RRIRIRPPRLPRPRPRPYVWPRP	-1.33
RRIRERPPRLPRPRPRPHQEPRP	0.0187
RRIRSRPPRLPRPRPRPRIIPRP	-0.712

Sequence	shrunken log2 fold change
RRIRKRPPRLPRPRPRPREYPRP	0.261
RRIRDRPPRLPRPRPRPSDAPRP	-0.218
RRIRSRPPRLPRPRPRPVVSPRP	0.151
RRIRTRPPRLPRPRPRPVKDPRP	-0.0913
RRIRCRPPRLPRPRPRPETAPRP	0.308
RRIRKRPPRLPRPRPRPCYMPRP	-0.195
RRIRRRPPRLPRPRPRPGWGPRP	0.497
RRIRTRPPRLPRPRPRPLLEPRP	0.024
RRIRVRPPRLPRPRPRPPMGPRP	0.254
RRIRGRPPRLPRPRPRPWWTPRP	-0.124
RRIRCRPPRLPRPRPRPAKSPRP	0.448
RRIRSRPPRLPRPRPRPYTFPRP	-1.01
RRIRRRPPRLPRPRPRPVWLPRP	0.175
RRIRWRPPRLPRPRPRPGKCPRP	0.0425
RRIRFRPPRLPRPRPRPWSFPRP	-0.34
RRIRIRPPRLPRPRPRPNMAPRP	-0.344
RRIRVRPPRLPRPRPRPMSPPRP	0.0872
RRIRNRPPRLPRPRPRPRFWPRP	0.395
RRIRWRPPRLPRPRPRPWNAPRP	-0.176
RRIRGRPPRLPRPRPRPENCPRP	0.111
RRIRIRPPRLPRPRPRPQKSPRP	-0.403
RRIRMRPPRLPRPRPRPLVQPRP	0.199
RRIRCRPPRLPRPRPRPPPDPRP	1.26
RRIRGRPPRLPRPRPRPIGGPRP	0.0174
RRIRRRPPRLPRPRPRPEYYPRP	-0.324

Sequence	shrunken log2 fold change
RRIRPRPPRLPRPRPRPSLPPRP	-0.187
RRIRTRPPRLPRPRPRPNYNPRP	-0.831
RRIRLRPPRLPRPRPRPIIRPRP	-0.19
RRIRIRPPRLPRPRPRPSSHPRP	-1.02
RRIRMRPPRLPRPRPRPPAKPRP	1.06
RRIRLRPPRLPRPRPRPLNAPRP	-0.0775
RRIRGRPPRLPRPRPRPGLMPRP	0.799
RRIRIRPPRLPRPRPRPCHNPRP	-0.293
RRIRQRPPRLPRPRPRPRDVPRP	-0.0705
RRIRNRPPRLPRPRPRPKAQPRP	0.0241
RRIRMRPPRLPRPRPRPMWPPRP	0.0917
RRIRHRPPRLPRPRPRPCWRPRP	0.0476
RRIRVRPPRLPRPRPRPFKQPRP	-0.0195
RRIRERPPRLPRPRPRPYNKPRP	-1.11
RRIRCRPPRLPRPRPRPNIYPRP	-0.588
RRIRTRPPRLPRPRPRPSRLPRP	0.0405
RRIRYRPPRLPRPRPRPVQMPRP	-0.0524
RRIRVRPPRLPRPRPRPMVEPRP	0.303
RRIRHRPPRLPRPRPRPIVYPRP	-0.452
RRIRGRPPRLPRPRPRPWRWPRP	0.656
RRIRFRPPRLPRPRPRPLVNPRP	-0.0651
RRIRPRPPRLPRPRPRPFTDPRP	-0.247
RRIRLRPPRLPRPRPRPTLVPRP	-0.0392
RRIRVRPPRLPRPRPRPAEQPRP	0.247
RRIRWRPPRLPRPRPRPDKEPRP	0.0411

Sequence	shrunken log2 fold change
RRIRHRPPRLPRPRPRPNKNPRP	-0.717
RRIRHRPPRLPRPRPRPYVWPRP	0.0405
RRIRMRPPRLPRPRPRPMDQPRP	-0.0516
RRIRVRPPRLPRPRPRPLFYPRP	-0.22
RRIRYRPPRLPRPRPRPIHKPRP	-0.6
RRIRVRPPRLPRPRPRPDHHPRP	-0.392
RRIRYRPPRLPRPRPRPGVQPRP	0.0651
RRIRMRPPRLPRPRPRPAPYPRP	0.576
RRIRSRPPRLPRPRPRPVRSPRP	0.255
RRIRSRPPRLPRPRPRPIFEPRP	0.0577
RRIRSRPPRLPRPRPRPDMWPRP	-0.409
RRIRYRPPRLPRPRPRPRIEPRP	0.0242
RRIRSRPPRLPRPRPRPTRFPRP	0.2
RRIRKRPPRLPRPRPRPHCLPRP	-0.0309
RRIRCRPPRLPRPRPRPQGYPRP	-0.0448
RRIRNRPPRLPRPRPRPTSPPRP	0.113
RRIRKRPPRLPRPRPRPPEKPRP	0.00179
RRIRFRPPRLPRPRPRPTVQPRP	0.0692
RRIRTRPPRLPRPRPRPYSSPRP	0.00157
RRIRLRPPRLPRPRPRPRLKPRP	0.885
RRIRLRPPRLPRPRPRPADHPRP	-0.53
RRIRWRPPRLPRPRPRPCQDPRP	-0.0575
RRIRLRPPRLPRPRPRPRHHPRP	-0.0411
RRIRARPPRLPRPRPRPMQPPRP	0.369
RRIRCRPPRLPRPRPRPSMSPRP	-0.273

Sequence	shrunken log2 fold change
RRIRHRPPRLPRPRPRPRFPPRP	0.0956
RRIRHRPPRLPRPRPRPSLGPRP	0.165
RRIRLRPPRLPRPRPRPKMLPRP	-0.0541
RRIRARPPRLPRPRPRPVCYPRP	-0.128
RRIRLRPPRLPRPRPRPRGQPRP	0.533
RRIRARPPRLPRPRPRPLIVPRP	0.287
RRIRKRPPRLPRPRPRPASRPRP	0.519
RRIRARPPRLPRPRPRPDHYPRP	-0.287
RRIRPRPPRLPRPRPRPYYHPRP	-0.794
RRIRIRPPRLPRPRPRPFHTPRP	-0.235
RRIRTRPPRLPRPRPRPQDKPRP	-0.658
RRIRHRPPRLPRPRPRPVEIPRP	-0.0173
RRIRDRPPRLPRPRPRPRPYPRP	0.018
RRIRDRPPRLPRPRPRPTIHPRP	-0.128
RRIRIRPPRLPRPRPRPLYHPRP	-0.761
RRIRERPPRLPRPRPRPIIEPRP	0.0238
RRIRSRPPRLPRPRPRPTIPPRP	-0.104
RRIRYRPPRLPRPRPRPLQPPRP	-0.499
RRIRARPPRLPRPRPRPPYDPRP	0.0295
RRIRGRPPRLPRPRPRPIPAPRP	0.913
RRIRLRPPRLPRPRPRPYIWPRP	-0.017
RRIRARPPRLPRPRPRPSWHPRP	0.0482
RRIRQRPPRLPRPRPRPKVDPRP	0.129
RRIRCRPPRLPRPRPRPFDCPRP	-0.95
RRIRVRPPRLPRPRPRPSWWPRP	0.0465
